The data set can be described thus: CD spectra under different pH conditions with predicted secondary structure. The format is physicochemical. The following applies: peptide concentration 20 μM, PBS (−), pH 7.4, 6.5, 6.0, 5.5. The procedure:
The peptide obtained in Production Example 1 alone and liposome 1 obtained as in Example 1 (each having a peptide concentration of 20 μM) were suspended in PBS (−) having different pH, and CD (circular dichroism) spectra were recorded on a J-720WI spectropolarimeter (produced by JASCO Corporation). Then, analysis software (see JWSSE-480; Molecular Membrane Biology, July, August 2007; 24 (4): 282-293) was used to predict the composition of the secondary structure in the spectra.
In FIG. 9 below, the “α-helix” represents an a helix structure; the “coil” represents a random coil structure (not forming a clear secondary structure); and “turn” represents a bending structure.

The source of these data is patent publication US9186389B2, “Nanoparticles containing pH-responsive peptide” (Taiho Pharmaceutical Co., Ltd., priority 2011, dated 2015).

* marks the point of attachment. Stearoyl = CCCCCCCCCCCCCCCCCC(=O)*

Consider “C17H35—C(O)-GGGGHGAHEHAGHEHAAGEHHAHE-NH2 (Stearoyl-GGGGHGAHEHAGHEHAAGEHHAHE-NH2; SMILES CCCCCCCCCCCCCCCCCC(=O)NCC(=O)NCC(=O)NCC(=O)NCC(=O)N[C@@H](Cc1c[nH]cn1)C(=O)NCC(=O)N[C@@H](C)C(=O)N[C@@H](Cc1c[nH]cn1)C(=O)N[C@@H](CCC(=O)O)C(=O)N[C@@H](Cc1c[nH]cn1)C(=O)N[C@@H](C)C(=O)NCC(=O)N[C@@H](Cc1c[nH]cn1)C(=O)N[C@@H](CCC(=O)O)C(=O)N[C@@H](Cc1c[nH]cn1)C(=O)N[C@@H](C)C(=O)N[C@@H](C)C(=O)NCC(=O)N[C@@H](CCC(=O)O)C(=O)N[C@@H](Cc1c[nH]cn1)C(=O)N[C@@H](Cc1c[nH]cn1)C(=O)N[C@@H](C)C(=O)N[C@@H](Cc1c[nH]cn1)C(=O)N[C@@H](CCC(=O)O)C(N)=O) [Compound 1]”, for which the “structural change with pH (CD spectrum)” value is on record as “a structural change does not occur unless the pH is lowered to 6.0”.
